Publication PMC8205236

Assays:
[1] = target: FZD5-FZD6 chimeric protein (human); experiment: FRET or BRET; NanoBiT/BRET saturation binding on live HEK293A cells (setup 1): eGFP-WNT-3A conditioned medium 16.7 pM to 16.7 nM, 5% FBS, 10 mM HEPES, 240 min at 37 °C, then LgBiT and furimazine for 10 min; one-site specific model (normalised logarithmic fits for pKd)
[2] = target: FZD5-FZD7 chimeric protein (human); experiment: as above

Chain of eGFP-tagged mouse WNT-3A (P27467 19-352): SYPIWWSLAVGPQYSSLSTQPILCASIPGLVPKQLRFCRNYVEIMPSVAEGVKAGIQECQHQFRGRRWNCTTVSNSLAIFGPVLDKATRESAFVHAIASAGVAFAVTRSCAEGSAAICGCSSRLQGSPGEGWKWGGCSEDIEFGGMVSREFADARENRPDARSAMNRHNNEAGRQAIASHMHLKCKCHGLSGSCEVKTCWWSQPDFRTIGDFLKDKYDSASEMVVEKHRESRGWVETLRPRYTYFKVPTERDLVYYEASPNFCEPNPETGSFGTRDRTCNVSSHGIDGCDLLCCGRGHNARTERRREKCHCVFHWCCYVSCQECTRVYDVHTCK

eGFP-tagged mouse WNT-3A (from UniProt P27467 19-352) (ligand)
Kd [1]: 4.4 nM
Kd [2]: 5 nM
